Test results as given in article PMC12173945, “Import mechanism of peroxisomal proteins with an N-terminal signal sequence” (Nature Cell Biology, 2025).

Tests used:
yeast PEX7 = test: Bead-binding assay: PEX39 and PEX7 (Fig. 5c, Extended Data Fig. 9a); set-up: species or system yeast (S. cerevisiae); conditions: PEX39-coated beads
Excerpt: Cysteine-containing peptides were covalently conjugated to thiol-reactive SulfoLink coupling resin (Thermo Fisher, catalogue number 20401) according to the manufacturer’s instructions. The prepared beads were then mixed with Assay Buffer containing the fluorescently labelled protein as well as additional components indicated in the text, and the resulting bead suspensions were transferred to a 384-well glass-bottomed plate (Cellvis, P384-1.5H-N). GST-fusion proteins were instead mixed with glutathione agarose 4B (Prometheus, 20-543) in Assay Buffer containing the fluorescently labelled protein and additional components indicated in the text; the resulting bead suspensions were then transferred to a glass-bottomed plate as above. The plates were incubated at RT for the durations specified in the text and directly imaged on the spinning-disk confocal platform described earlier for peroxisomal import reactions in Xenopus egg extract. Note that imaging the beads directly in the binding reaction preserves the equilibrium and thereby allows even weak interactions to be detected. Fluorescence was collected through a Nikon ×10 0.45 NA Plan Apo air objective, and images were acquired using the Nikon NIS-Elements software and a 16-bit digitizer without binning. Imaging parameters were configured to maximize the SNR while avoiding saturation. […]

[1] = test system: PEX7–receptor–cargo complex on PEX39-coated beads; test: Bead-binding assay: recruitment of PEX7–receptor–cargo complex to PEX39-coated beads (Fig. 7d, 8a); set-up: species or system yeast (S. cerevisiae); conditions: no peptide, Fig. 7d
Excerpt: Cysteine-containing peptides were covalently conjugated to thiol-reactive SulfoLink coupling resin (Thermo Fisher, catalogue number 20401) according to the manufacturer’s instructions. The prepared beads were then mixed with Assay Buffer containing the fluorescently labelled protein as well as additional components indicated in the text, and the resulting bead suspensions were transferred to a 384-well glass-bottomed plate (Cellvis, P384-1.5H-N). GST-fusion proteins were instead mixed with glutathione agarose 4B (Prometheus, 20-543) in Assay Buffer containing the fluorescently labelled protein and additional components indicated in the text; the resulting bead suspensions were then transferred to a glass-bottomed plate as above. The plates were incubated at RT for the durations specified in the text and directly imaged on the spinning-disk confocal platform described earlier for peroxisomal import reactions in Xenopus egg extract. Note that imaging the beads directly in the binding reaction preserves the equilibrium and thereby allows even weak interactions to be detected. Fluorescence was collected through a Nikon ×10 0.45 NA Plan Apo air objective, and images were acquired using the Nikon NIS-Elements software and a 16-bit digitizer without binning. Imaging parameters were configured to maximize the SNR while avoiding saturation. Samples intended to be compared were imaged using identical acquisition settings.

PEX5–GFP in YG hydrogel = test: YG hydrogel release assay, PEX5–GFP (Fig. 6d); format: biochemical; conditions: fourfold excess of PEX39
Protocol: YG hydrogels were prepared in a glass-bottomed plate as described earlier and equilibrated for 3 h at RT in Assay Buffer containing 0.5 µM PEX7–GFP or PEX5–GFP with or without PTS2 peptide and receptor at the concentrations specified in the text. Following the initial incubation, the hydrogels were imaged on a Nikon A1R point-scanning confocal system, as described earlier, with a Nikon ×10 0.45 NA Plan Apo air objective, a pinhole dilated to 1.4 Airy units and a pixel size of 2 µm. A solution of purified PEX39 was then spiked into each reaction and the hydrogels imaged every 2 min for an additional 1 h at RT.
For the PEX7-release assay from YG hydrogels, the total fluorescence within a 30-µm-wide band in the gel extending for 150 µm from the gel edge into the gel was measured at each time point. This distance was sufficient to fully encompass the permeation front of each fluorescent species. The resulting values were then normalized to the total fluorescence inside the gel at the start of the experiment and plotted as a function of time.

[2] = test system: PEX7–GFP influx into YG hydrogel; test: Influx of PEX7–GFP into YG hydrogel in the presence of PEX39 (Fig. 6f-i); format: biochemical, yeast; conditions: for Percent PEX7-GFP influx (+ PTS2 peptide + PEX5-21) / Percent PEX7-GFP influx (+ PTS2 peptide + PEX5S) / Percent PEX7-GFP influx: 60 min; for Percent PEX7-GFP influx: PEX7-GFP without PTS2 peptide/PEX5
Protocol: Fig. 6 PEX39 can extract PEX7 from the YG phase. a, YG hydrogels were prepared in a glass-bottomed dish and pre-equilibrated with PEX7–GFP. PEX39 was then added to the buffer and a point-scanning confocal microscope was used to follow the PEX7–GFP fluorescence over time. b, PEX7–GFP signal in the gel over time at the indicated molar ratios of wild-type PEX39 (relative to PEX7). The mean (bold line) and range (shading) of three experiments are shown. c, As in b using a fourfold excess of wild-type (WT) PEX39 or mutants harbouring alanines in place of the APH (∆APH), the RPWE motif (∆RPWE) or both (∆APH + ∆RPWE). d, As in b using PEX7–GFP or PEX5–GFP and a fourfold excess of wild-type PEX39. e, As in b using a fourfold excess of PTS2 peptide and the PEX7-binding chimaeric receptor PEX5-21 (left) or PTS2 peptide and the non-PEX7-binding receptor isoform PEX5S (right). Wild-type PEX39 was titrated as indicated. f, YG hydrogel droplets were incubated with PEX7–GFP in the presence of PEX39. The effect of PEX39 on the influx of PEX7–GFP into the gel was then assessed using a point-scanning confocal microscope. g, PEX7–GFP influx in the presence of the indicated molar ratios of wild-type PEX39 (relative to PEX7) with or without a fourfold excess of PTS2 peptide and either PEX5S or PEX5-21. The mean (bars) and individual values (circles) of three experiments are shown. h, As in g using PEX7–GFP or PEX5–GFP and the indicated molar ratios of wild-type PEX39. i, As in g using wild-type PEX39 or the indicated mutants. Source numerical data are provided. Source data
A solution of the purified wild-type YG-domain polypeptide (or the variant lacking the KPWE motif) was concentrated to 2 mM in 50 mM HEPES·NaOH pH 7.8 at RT, 2 M urea and 2 mM TCEP. Aliquots of 2 µl were then spotted on the bottom of multiple wells of a 96-well glass-bottomed plate (Cellvis, P96-1.5H-N), which was then sealed with a gas-impermeable AlumaSeal II film (Hampton Research, HR8-069) to prevent desiccation and incubated at RT for 24 h. Before each assay, the resulting gels were equilibrated overnight at RT in a 100-fold excess of Assay Buffer (25 mM HEPES·NaOH pH 7.8 at RT, 150 mM NaCl and 1 mM TCEP). A 0.5 µM solution of fluorescently labelled protein in Assay Buffer was then added to the samples, with or without additional components at the concentrations indicated in the text, and incubated at RT. Gels were imaged at the times indicated in the text using a Nikon A1R point-scanning confocal system consisting of an inverted Nikon Eclipse Ti microscope and a Nikon ×20 0.75 NA Plan Apo air objective. The objective was centred on the gel edge and focus was maintained 5 µm above the glass surface using the Nikon Perfect Focus System. Fluorescence was excited through a 405/488/561/647 quad-band dichroic (Chroma), using a 488-nm solid-state laser (Coherent) and a galvano scanner. A 50-nm emission band was collected on a gallium arsenide phosphide detector, using an ET525/50m (525 ± 25 nm) single-band bandpass filter (Chroma) and a pinhole dilated to 0.9 Airy units. Images were acquired using the Nikon NIS-Elements software with a pixel size of 1 µm and a 12-bit digitizer. Imaging parameters were configured to maximize the SNR while avoiding saturation. All samples intended to be compared were imaged using identical acquisition settings.

B1: PEX39 (WT): PEX39 from S. cerevisiae (GenBank accession no. NP_012546.4) (protein)
chain: MAAGGELSYEELLDHILNNKPIPNIVEVPNVTLDEGLASTPSLRPRPRPWEGQLQHQSHQGSLDKPNISLDIDQESLEGMTSLTRLSECYDIQSKLQINDSDNDNDDNNNDNNKGDGNDDDNNTVTANPTAR
modifications: left off: GST, N-terminal, cleaved
Recruitment / binding of PEX7 in words (yeast PEX7): could recruit PEX7–GFP
Recruitment of PEX7–PEX5-21–PTS2–GFP complex to PEX39-coated beads [1]: could be recruited to beads coated with wild-type PEX39
Extraction of PEX5–GFP from YG hydrogel (PEX5–GFP in YG hydrogel): unable to extract PEX5–GFP from the hydrogel
Effect on influx of PEX7–GFP into YG hydrogel ([2]; PEX7–GFP alone or with PTS2 peptide and PEX5S): blocked the influx of PEX7–GFP alone as well as PEX7–GFP in the presence of a PTS2 peptide and PEX5S
Effect on influx of PEX7–GFP into YG hydrogel, PEX5-21 complex ([2]; PEX7–GFP in complex with PTS2 peptide and PEX5-21): much less inhibitory
Percent PEX7-GFP influx (+ PTS2 peptide + PEX5-21) ([2]; PEX39 1×, replicate 1): 66.880%
Percent PEX7-GFP influx (+ PTS2 peptide + PEX5-21) ([2]; PEX39 1×, replicate 2): 83.899%
Percent PEX7-GFP influx (+ PTS2 peptide + PEX5-21) ([2]; PEX39 1×, replicate 3): 114.523%
Percent PEX7-GFP influx (+ PTS2 peptide + PEX5S) ([2]; PEX39 1×, replicate 1): 23.191%
Percent PEX7-GFP influx (+ PTS2 peptide + PEX5S) ([2]; PEX39 1×, replicate 2): 21.558%
Percent PEX7-GFP influx (+ PTS2 peptide + PEX5S) ([2]; PEX39 1×, replicate 3): 32.481%
Percent PEX7-GFP influx ([2]; PEX39 1×, replicate 1): 49.645%
Percent PEX7-GFP influx ([2]; PEX39 1×, replicate 2): 60.527%
Percent PEX7-GFP influx ([2]; PEX39 1×, replicate 3): 62.401%
Percent PEX7-GFP influx (+ PTS2 peptide + PEX5-21) ([2]; PEX39 2×, replicate 1): 50.795%
Percent PEX7-GFP influx (+ PTS2 peptide + PEX5-21) ([2]; PEX39 2×, replicate 2): 68.223%
Percent PEX7-GFP influx (+ PTS2 peptide + PEX5-21) ([2]; PEX39 2×, replicate 3): 111.257%
Percent PEX7-GFP influx (+ PTS2 peptide + PEX5S) ([2]; PEX39 2×, replicate 1): 5.154%
Percent PEX7-GFP influx (+ PTS2 peptide + PEX5S) ([2]; PEX39 2×, replicate 2): 5.013%
Percent PEX7-GFP influx (+ PTS2 peptide + PEX5S) ([2]; PEX39 2×, replicate 3): 4.961%
Percent PEX7-GFP influx ([2]; PEX39 2×, replicate 1): 14.576%
Percent PEX7-GFP influx ([2]; PEX39 2×, replicate 2): 15.433%
Percent PEX7-GFP influx ([2]; PEX39 2×, replicate 3): 14.730%
Percent PEX7-GFP influx (+ PTS2 peptide + PEX5-21) ([2]; PEX39 4×, replicate 1): 53.842%
Percent PEX7-GFP influx (+ PTS2 peptide + PEX5-21) ([2]; PEX39 4×, replicate 2): 47.057%
Percent PEX7-GFP influx (+ PTS2 peptide + PEX5-21) ([2]; PEX39 4×, replicate 3): 58.495%
Percent PEX7-GFP influx (+ PTS2 peptide + PEX5S) ([2]; PEX39 4×, replicate 1): 2.693%
Percent PEX7-GFP influx (+ PTS2 peptide + PEX5S) ([2]; PEX39 4×, replicate 2): 2.263%
Percent PEX7-GFP influx (+ PTS2 peptide + PEX5S) ([2]; PEX39 4×, replicate 3): 2.329%
Percent PEX7-GFP influx ([2]; PEX39 at 4× molar ratio, replicate 1): 7.357%
Percent PEX7-GFP influx ([2]; PEX39 at 4× molar ratio, replicate 2): 5.802%
Percent PEX7-GFP influx ([2]; PEX39 at 4× molar ratio, replicate 3): 7.696%
